The supplement of paper PMC10724198
± gives the standard deviation of the averaged measurements.

System: Saccharomyces cerevisiae
Experiment: protein stability index of tFT-peptide fusion (C-terminal peptide) (PSI (0-1 scale)); higher = more stable (slower turnover)
Conditions: genetic background: wild type; temperature: 30 C
Method: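 Multiplexed protein stability (MPS) profiling in S. cerevisiae. Random 12-aa peptides (tFT-X12 library) are fused to the C-terminus of a sfGFP-mCherry tandem fluorescent timer, after mCherry and a GGGS linker. Cells are FACS-sorted into 8 mCherry/sfGFP bins and deep-sequenced. The protein stability index (PSI) is the read-weighted bin average, scaled from 0 (unstable) to 1 (stable). Only peptides with >10 reads are reported; cells were grown at 30 °C in SC-His with glucose.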
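Note: PSI is a weighted mean of sequencing reads over stability bins, variants kept only with over 10 reads, mCherry proximal and sfGFP distal, peptide attached via GGGS linker.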

Sequence | protein stability index
GSMWCLTPSAGL | 0.7 ± 0.034
GSQCPVLEQQRD | 0.655 ± 0.018
GSRALYCIVPRF | 0.661 ± 0.053
GSRVEVGLGVRC | 0.712 ± 0.027
GSSAPSYTIGPE | 0.682 ± 0.017
GSSAVGGGGVWW | 0.819 ± 0.1
GSSVGVAGLRGR | 0.656 ± 0.029
GSSVSSVWGGVG | 0.629 ± 0.022
GSTSWAWITLPH | 0.747 ± 0.0077
GSVGSFIVVVHF | 0.552 ± 0.013
GSVMDMTRGGVS | 0.646 ± 0.097
GSVSLLASLMCS | 0.55596 ± 0.00023
GSWGRPAGFSRR | 0.651 ± 0.028
GSWGVGLGKVHW | 0.752 ± 0.022
GTALLSGGVLVI | 0.689 ± 0.11
GTATINQISSPQ | 0.673 ± 0.028
GTEFIIDIQIFV | 0.547 ± 0.02
GTETFHDASIGI | 0.653 ± 0.016
GTGEMNDKDQEE | 0.798 ± 0.12
GTKEYKKNRKII | 0.653 ± 0.03
GTQPAAGNTPWA | 0.703 ± 0.029
GTSPSSVRPLCG | 0.7043 ± 0.0069
GTTHRSKRLRRK | 0.768 ± 0.035
GTVEGAVQGLVE | 0.718 ± 0.045
GTVRGVVRGRGG | 0.664 ± 0.012
GTVSEGAMSVGF | 0.809 ± 0.11

Sequence | protein stability index
GTVWQSNSGAAT | 0.68 ± 0.028
GTWAGGGWSCES | 0.696 ± 0.039
GTYNIGVFAPEN | 0.653 ± 0.032
GVACEGRGGRCW | 0.689 ± 0.012
GVANSPTVRERT | 0.666 ± 0.018
GVCASGAGSVGG | 0.662 ± 0.029
GVCLQGRRASGE | 0.693 ± 0.091
GVCQSEKSARGI | 0.664 ± 0.05
GVDGLLRVYVME | 0.674 ± 0.029
GVEGASVLGWGR | 0.704 ± 0.19
GVGAPRLPPRPG | 0.696 ± 0.012
GVGEWRSGVGVG | 0.592 ± 0.043
GVGFGWGGVWME | 0.691 ± 0.0073
GVGGEGRNDALI | 0.635 ± 0.037
GVGGEIGRGGEY | 0.676 ± 0.035
GVGGEPDLADWG | 0.762 ± 0.023
GVGGGGCVLVRG | 0.723 ± 0.018
GVGGGGIGVGMG | 0.7262 ± 0.0018
GVGGPLRPGPCQ | 0.758 ± 0.24
GVGGVARGERIP | 0.678 ± 0.0085
GVGLSGEGGLGR | 0.642 ± 0.015
GVGQGGPVVVGR | 0.665 ± 0.024
GVGREGGCWRTG | 0.702 ± 0.11
GVGRPSDGPFRA | 0.666 ± 0.047
GVGSCVILRLRN | 0.557 ± 0.02
GVGWGDVWGCGE | 0.741 ± 0.038

Sequence | protein stability index
GVGWWLGLGVIW | 0.692 ± 0.029
GVIYFSLSSFPL | 0.655 ± 0.14
GVLGGAGCGVVL | 0.731 ± 0.023
GVLPYRYRGLVL | 0.64 ± 0.16
GVLRAWARLWGN | 0.599 ± 0.039
GVLRICFGGLVS | 0.729 ± 0.031
GVLRIRIGLGRG | 0.653 ± 0.028
GVLRPLVGALGM | 0.609 ± 0.0083
GVNMGKIYKIRN | 0.649 ± 0.03
GVPPFAPPPPPH | 0.703 ± 0.015
GVPPTPTHPCTC | 0.758 ± 0.072
GVPYSPKSHRDH | 0.643 ± 0.047
GVRERSCIKKAR | 0.604 ± 0.058
GVRGVSHMDGGD | 0.758 ± 0.16
GVSAPRFPGALA | 0.69 ± 0.01
GVSLREASVAAI | 0.7104 ± 0.0055
GVSVICGFPVSC | 0.732 ± 0.056
GVSWSWGDLAVL | 0.756 ± 0.016
GVTGGGVVNRGV | 0.689 ± 0.088
GVVIGWAGYKGT | 0.671 ± 0.043
GVVLDVRCVGLF | 0.661 ± 0.021
GVVRSSRRYSFR | 0.705 ± 0.034
GVVSRGGRRLGV | 0.7011 ± 0.0035
GVWPWWGWSCCF | 0.782 ± 0.1
GVYNGGIPQVLQ | 0.6843 ± 0.0028
GVYSVACVSGSV | 0.64 ± 0.014

Sequence | protein stability index
GWAFGVRGMIKK | 0.74 ± 0.043
GWAVGGGGGRGR | 0.617 ± 0.057
GWCAPLGLLLVL | 0.539 ± 0.031
GWCGGLWRFGWG | 0.723 ± 0.092
GWDCKGNDCWNG | 0.693 ± 0.055
GWDQSGVVFVCG | 0.605 ± 0.017
GWDSGHLVVMEI | 0.715 ± 0.033
GWESERWSTLHK | 0.763 ± 0.024
GWEVGGGRLGVV | 0.716 ± 0.11
GWGCGGGGAWSG | 0.767 ± 0.018
GWGFLGGTVAAV | 0.697 ± 0.035
GWGGLFGCWVCG | 0.656 ± 0.015
GWGIFRISSFGT | 0.713 ± 0.018
GWGPSSAGGAGG | 0.752 ± 0.12
GWGWGSMDLRDR | 0.6919 ± 0.0024
GWIGVFGLFGCG | 0.752 ± 0.083
GWKLGAVRRGVI | 0.706 ± 0.015
GWLGGGVRLGRL | 0.714 ± 0.067
GWRACWVRAPRW | 0.708 ± 0.018
GWRRSWVWDVGG | 0.699 ± 0.027
GWRSGGVYDGNI | 0.6572 ± 0.0027
GWSVDGVVLGAP | 0.728 ± 0.046
GWVFCLFPVGGL | 0.607 ± 0.051
GWVGGCGGGRGI | 0.683 ± 0.0092
GWVHGEDMAVFG | 0.7 ± 0.0049
GWVVSGIFGRCC | 0.689 ± 0.013

Sequence | protein stability index
GWWLFRSRWWHE | 0.573 ± 0.022
GWWWGGGGAWSG | 0.718 ± 0.071
GYGWGVGGGFGR | 0.691 ± 0.019
GYLEGMVYRESD | 0.689 ± 0.025
GYLNCFGYVWGP | 0.653 ± 0.04
GYSSPPLITIPH | 0.659 ± 0.023
HALFPRAPSPPW | 0.7513 ± 0.0055
HAVRQNDTYKHG | 0.74 ± 0.087
HCPRPRPTCRPP | 0.615 ± 0.1
HCSGGFRCPPLV | 0.6862 ± 0.0046
HDEGLEGLTVVF | 0.675 ± 0.019
HECVRGLSFVLV | 0.668 ± 0.081
HEEPEVPEIQHV | 0.743 ± 0.063
HFSRNYINENVS | 0.716 ± 0.04
HFWGCCRRRCLK | 0.66 ± 0.051
HGKGLKEKRVEG | 0.672 ± 0.041
HGKNLALNEKCW | 0.691 ± 0.034
HGSYYSAVWGKG | 0.684 ± 0.096
HHRVLRCNNPFR | 0.731 ± 0.12
HHSAPARLAFRY | 0.673 ± 0.023
HHTDSLRPTAPH | 0.73 ± 0.054
HISHPTGDVQTP | 0.627 ± 0.083
HKSRHSPKPPFT | 0.6677 ± 0.0026
HLPLLLFHPPLH | 0.637 ± 0.0051
HLPPPPRITVVP | 0.716 ± 0.073
HLPPPPSPSPPP | 0.686 ± 0.012

Sequence | protein stability index
HLQLCAPISTTD | 0.652 ± 0.07
HLTVSRIRLISK | 0.658 ± 0.079
HLYARHCPPPNR | 0.677 ± 0.052
HNKSGEKKKKEA | 0.697 ± 0.0076
HNPRTCRAPLSL | 0.671 ± 0.0079
HPAAPPPPPPPR | 0.732 ± 0.066
HPAPNPGFHFDR | 0.733 ± 0.065
HPAPVPSAPSDA | 0.678 ± 0.054
HPDPSPPTKPPP | 0.68 ± 0.031
HPFASRSRFTPR | 0.753 ± 0.063
HPGLRLENVNPQ | 0.702 ± 0.014
HPHPPQSTNPYT | 0.677 ± 0.058
HPHVPAPRVPHP | 0.721 ± 0.047
HPNPYTTPGTPA | 0.625 ± 0.0078
HPPPPAPTPSSR | 0.711 ± 0.04
HPPPPPRSLPLP | 0.692 ± 0.08
HPPPPPSPPGLP | 0.6578 ± 0.0013
HPPSSSHTQPPR | 0.683 ± 0.014
HPPTPPPPFPPP | 0.659 ± 0.018
HPSAVPHPPDIV | 0.659 ± 0.046
HPSPTAPPSASN | 0.66 ± 0.022
HPTAILLVPLLL | 0.597 ± 0.029
HQCVIVNFEKYD | 0.669 ± 0.038
HQSSHTRMARSL | 0.723 ± 0.013
HRIHRSLLTGGR | 0.708 ± 0.021
